The text below walks through data of PMC9795466.

This data set has as its target thrombin (human, UniProt P00734;P00734 328-363;364-622). As to the kind of experiment: organic electrochemical transistor.

For orientation: Kd means a measure of binding affinity in units of concentration. High values mean a looser complex, low ones a tighter complex. With TTTTTAGTCCGTGGTAGGGCAGGTTGGGGTGACT (ssDNA, 5' DBCO-TEG) [DBCO-HD22 thrombin aptamer], binding was put at a Kd of 103 ± 44 nM.
